In paper PMC8318917 (The Journal of Biological Chemistry, 2021):

Target: T1, human TRADD death domain (199–312) (human, UniProt Q15628 199-312)
T1 sequence: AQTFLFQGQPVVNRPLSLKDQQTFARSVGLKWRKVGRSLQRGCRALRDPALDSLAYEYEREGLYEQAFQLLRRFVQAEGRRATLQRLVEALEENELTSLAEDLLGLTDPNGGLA
Assay: NMR solution structure

B1: human p75 neurotrophin receptor death domain (330–427) (domain or fragment)
chain: KGDGGLYSSLPPAKREEVEKLLNGSAGDTWRHLAGELGYQPEHIDSFTHEACPVRALLASWATQDSATLDALLAALRRIQRADLVESLCSESTATSPV
binding result: binds
